Assay results reported in paper PMC12102759 (2025).

B1: PIP5K1C peptide 642-657 (Phosphatidylinositol 4-phosphate 5-kinase type-1 gamma), 16-mer library wild type / TLN1 PTB (TLN1 Phosphotyrosine-binding (PTB) domain, residues 309-401) (parent complex)
chain 1: TDERSWVYSPLHYSAQ
chain 2: GVSFFLVKEKMKGKNKLVPRLLGITKECVMRVDEKTKEVIQEWNLTNIKRWAASPKSFTLDFGDYQDGYYSVQTTEGEQIAQLIAGYIDIILK

Variants of: B1
Test: proteomic peptide phage display deep mutational scan (ProP-PD DMS): M13 P8 16-mer library selected against immobilised GST-tagged bait for four days (rounds), NGS of the eluted pools per day and pseudo-replica; bait immobilised on MaxiSorp plates (10 µg), library pre-cleared on GST, 2 h binding at 4 °C, five washes; one round per day, days 1-4; value from days 2 and 3

chain 1 A15W was tested. Which screen value did it give?
The screen value was 0.00297 average fractional NGS count over selection days 2 and 3 (reads of this peptide / all reads for the bait, averaged over ….

With chain 1 A15L as the variant, how does the screen value read?
The screen value was 0.00142 average fractional NGS count over selection days 2 and 3 (reads of this peptide / all reads for the bait, averaged over ….

chain 1 A15G was tested. Which screen value did it give?
Its screen value is 0.000489 average fractional NGS count over selection days 2 and 3 (reads of this peptide / all reads for the bait, averaged over ….

For chain 1 A15D, which screen value is on record?
The screen value was 0.00285 average fractional NGS count over selection days 2 and 3 (reads of this peptide / all reads for the bait, averaged over ….

For chain 1 A15T, which screen value is on record?
Its screen value is 0.00116 average fractional NGS count over selection days 2 and 3 (reads of this peptide / all reads for the bait, averaged over ….

How did the screen value turn out when chain 1 A15H was run?
Its screen value is 0.000752 average fractional NGS count over selection days 2 and 3 (reads of this peptide / all reads for the bait, averaged over ….

With chain 1 S14D as the variant, how does the screen value read?
Its screen value is 0.00662 average fractional NGS count over selection days 2 and 3 (reads of this peptide / all reads for the bait, averaged over ….

How did the screen value turn out when chain 1 S14K was run?
Its screen value is 0.000852 average fractional NGS count over selection days 2 and 3 (reads of this peptide / all reads for the bait, averaged over ….

For chain 1 S14P, which screen value is on record?
The screen value was 0.000401 average fractional NGS count over selection days 2 and 3 (reads of this peptide / all reads for the bait, averaged over ….

chain 1 S14A was tested. Which screen value did it give?
The screen value was 0.00151 average fractional NGS count over selection days 2 and 3 (reads of this peptide / all reads for the bait, averaged over ….

Which screen value does the source give for chain 1 S14Y here?
Its screen value is 0.00168 average fractional NGS count over selection days 2 and 3 (reads of this peptide / all reads for the bait, averaged over ….

How did the screen value turn out when chain 1 D2Q was run?
The screen value was 0.00198 average fractional NGS count over selection days 2 and 3 (reads of this peptide / all reads for the bait, averaged over ….

With chain 1 D2N as the variant, how does the screen value read?
Its screen value is 0.000972 average fractional NGS count over selection days 2 and 3 (reads of this peptide / all reads for the bait, averaged over ….

For chain 1 D2P, which screen value is on record?
The screen value was 0.00102 average fractional NGS count over selection days 2 and 3 (reads of this peptide / all reads for the bait, averaged over ….

For chain 1 D2S, which screen value is on record?
The screen value was 0.00166 average fractional NGS count over selection days 2 and 3 (reads of this peptide / all reads for the bait, averaged over ….

With chain 1 S5T as the variant, how does the screen value read?
Its screen value is 0.0143 average fractional NGS count over selection days 2 and 3 (reads of this peptide / all reads for the bait, averaged over ….

For chain 1 S5V, which screen value is on record?
The screen value was 0.0006 average fractional NGS count over selection days 2 and 3 (reads of this peptide / all reads for the bait, averaged over ….

How did the screen value turn out when chain 1 S5A was run?
The screen value was 0.0049 average fractional NGS count over selection days 2 and 3 (reads of this peptide / all reads for the bait, averaged over ….

Which screen value does the source give for chain 1 S5W here?
The screen value was 0.000786 average fractional NGS count over selection days 2 and 3 (reads of this peptide / all reads for the bait, averaged over ….

chain 1 S5E was tested. Which screen value did it give?
The screen value was 0.00528 average fractional NGS count over selection days 2 and 3 (reads of this peptide / all reads for the bait, averaged over ….

For chain 1 S5F, which screen value is on record?
The screen value was 0.000252 average fractional NGS count over selection days 2 and 3 (reads of this peptide / all reads for the bait, averaged over ….

With chain 1 S5M as the variant, how does the screen value read?
Its screen value is 0.00508 average fractional NGS count over selection days 2 and 3 (reads of this peptide / all reads for the bait, averaged over ….

chain 1 T1Y was tested. Which screen value did it give?
The screen value was 0.000499 average fractional NGS count over selection days 2 and 3 (reads of this peptide / all reads for the bait, averaged over ….

Which screen value does the source give for chain 1 T1R here?
The screen value was 0.00306 average fractional NGS count over selection days 2 and 3 (reads of this peptide / all reads for the bait, averaged over ….

chain 1 T1V was tested. Which screen value did it give?
The screen value was 0.00105 average fractional NGS count over selection days 2 and 3 (reads of this peptide / all reads for the bait, averaged over ….

Which screen value does the source give for chain 1 T1Q here?
Its screen value is 0.00112 average fractional NGS count over selection days 2 and 3 (reads of this peptide / all reads for the bait, averaged over ….

For chain 1 T1H, which screen value is on record?
The screen value was 0.000767 average fractional NGS count over selection days 2 and 3 (reads of this peptide / all reads for the bait, averaged over ….

For chain 1 T1N, which screen value is on record?
The screen value was 0.00021 average fractional NGS count over selection days 2 and 3 (reads of this peptide / all reads for the bait, averaged over ….

Which screen value does the source give for chain 1 Y13H here?
The screen value was 0.000476 average fractional NGS count over selection days 2 and 3 (reads of this peptide / all reads for the bait, averaged over ….

How did the screen value turn out when chain 1 Y13V was run?
Its screen value is 0.0012 average fractional NGS count over selection days 2 and 3 (reads of this peptide / all reads for the bait, averaged over ….

With chain 1 Y13T as the variant, how does the screen value read?
The screen value was 0.000772 average fractional NGS count over selection days 2 and 3 (reads of this peptide / all reads for the bait, averaged over ….

Which screen value does the source give for chain 1 Y13Q here?
The screen value was 0.00224 average fractional NGS count over selection days 2 and 3 (reads of this peptide / all reads for the bait, averaged over ….

With chain 1 Y13L as the variant, how does the screen value read?
The screen value was 0.00182 average fractional NGS count over selection days 2 and 3 (reads of this peptide / all reads for the bait, averaged over ….

chain 1 Y13W was tested. Which screen value did it give?
Its screen value is 0.000603 average fractional NGS count over selection days 2 and 3 (reads of this peptide / all reads for the bait, averaged over ….

With chain 1 Y13S as the variant, how does the screen value read?
Its screen value is 0.00787 average fractional NGS count over selection days 2 and 3 (reads of this peptide / all reads for the bait, averaged over ….

For chain 1 Y13K, which screen value is on record?
The screen value was 0.000613 average fractional NGS count over selection days 2 and 3 (reads of this peptide / all reads for the bait, averaged over ….

chain 1 Y13N was tested. Which screen value did it give?
The screen value was 0.00437 average fractional NGS count over selection days 2 and 3 (reads of this peptide / all reads for the bait, averaged over ….

With chain 1 S9N as the variant, how does the screen value read?
Its screen value is 0.0022 average fractional NGS count over selection days 2 and 3 (reads of this peptide / all reads for the bait, averaged over ….

For chain 1 S9D, which screen value is on record?
Its screen value is 7.45e-05 average fractional NGS count over selection days 2 and 3 (reads of this peptide / all reads for the bait, averaged over ….

For chain 1 R4P, which screen value is on record?
The screen value was 0.000771 average fractional NGS count over selection days 2 and 3 (reads of this peptide / all reads for the bait, averaged over ….

For chain 1 R4Q, which screen value is on record?
The screen value was 0.00324 average fractional NGS count over selection days 2 and 3 (reads of this peptide / all reads for the bait, averaged over ….

For chain 1 R4N, which screen value is on record?
Its screen value is 0.00121 average fractional NGS count over selection days 2 and 3 (reads of this peptide / all reads for the bait, averaged over ….

For chain 1 R4H, which screen value is on record?
The screen value was 0.00121 average fractional NGS count over selection days 2 and 3 (reads of this peptide / all reads for the bait, averaged over ….

With chain 1 R4V as the variant, how does the screen value read?
The screen value was 0.00216 average fractional NGS count over selection days 2 and 3 (reads of this peptide / all reads for the bait, averaged over ….

How did the screen value turn out when chain 1 R4T was run?
The screen value was 0.000696 average fractional NGS count over selection days 2 and 3 (reads of this peptide / all reads for the bait, averaged over ….

How did the screen value turn out when chain 1 R4F was run?
The screen value was 0.00144 average fractional NGS count over selection days 2 and 3 (reads of this peptide / all reads for the bait, averaged over ….

Which screen value does the source give for chain 1 E3L here?
Its screen value is 0.00278 average fractional NGS count over selection days 2 and 3 (reads of this peptide / all reads for the bait, averaged over ….

With chain 1 E3K as the variant, how does the screen value read?
The screen value was 0.00138 average fractional NGS count over selection days 2 and 3 (reads of this peptide / all reads for the bait, averaged over ….

With chain 1 E3N as the variant, how does the screen value read?
Its screen value is 0.00147 average fractional NGS count over selection days 2 and 3 (reads of this peptide / all reads for the bait, averaged over ….

With chain 1 E3P as the variant, how does the screen value read?
The screen value was 0.000178 average fractional NGS count over selection days 2 and 3 (reads of this peptide / all reads for the bait, averaged over ….

For chain 1 E3Q, which screen value is on record?
The screen value was 0.000394 average fractional NGS count over selection days 2 and 3 (reads of this peptide / all reads for the bait, averaged over ….

How did the screen value turn out when chain 1 E3R was run?
Its screen value is 0.000973 average fractional NGS count over selection days 2 and 3 (reads of this peptide / all reads for the bait, averaged over ….

How did the screen value turn out when chain 1 L11W was run?
The screen value was 0.000722 average fractional NGS count over selection days 2 and 3 (reads of this peptide / all reads for the bait, averaged over ….

With chain 1 L11M as the variant, how does the screen value read?
The screen value was 0.000374 average fractional NGS count over selection days 2 and 3 (reads of this peptide / all reads for the bait, averaged over ….

chain 1 L11H was tested. Which screen value did it give?
Its screen value is 0.000309 average fractional NGS count over selection days 2 and 3 (reads of this peptide / all reads for the bait, averaged over ….

How did the screen value turn out when chain 1 Y8V was run?
The screen value was 0.0101 average fractional NGS count over selection days 2 and 3 (reads of this peptide / all reads for the bait, averaged over ….

chain 1 Y8K was tested. Which screen value did it give?
The screen value was 0.00106 average fractional NGS count over selection days 2 and 3 (reads of this peptide / all reads for the bait, averaged over ….

chain 1 Y8Q was tested. Which screen value did it give?
Its screen value is 0.00124 average fractional NGS count over selection days 2 and 3 (reads of this peptide / all reads for the bait, averaged over ….

chain 1 Y8F was tested. Which screen value did it give?
Its screen value is 0.00543 average fractional NGS count over selection days 2 and 3 (reads of this peptide / all reads for the bait, averaged over ….

With chain 1 Y8R as the variant, how does the screen value read?
Its screen value is 0.0156 average fractional NGS count over selection days 2 and 3 (reads of this peptide / all reads for the bait, averaged over ….

How did the screen value turn out when chain 1 Y8N was run?
The screen value was 0.00782 average fractional NGS count over selection days 2 and 3 (reads of this peptide / all reads for the bait, averaged over ….

chain 1 P10Q was tested. Which screen value did it give?
Its screen value is 0.001 average fractional NGS count over selection days 2 and 3 (reads of this peptide / all reads for the bait, averaged over ….

For chain 1 P10R, which screen value is on record?
Its screen value is 0.000767 average fractional NGS count over selection days 2 and 3 (reads of this peptide / all reads for the bait, averaged over ….

With chain 1 P10L as the variant, how does the screen value read?
Its screen value is 0.00637 average fractional NGS count over selection days 2 and 3 (reads of this peptide / all reads for the bait, averaged over ….

With chain 1 P10F as the variant, how does the screen value read?
The screen value was 0.0019 average fractional NGS count over selection days 2 and 3 (reads of this peptide / all reads for the bait, averaged over ….

With chain 1 P10V as the variant, how does the screen value read?
Its screen value is 0.000485 average fractional NGS count over selection days 2 and 3 (reads of this peptide / all reads for the bait, averaged over ….

chain 1 H12F was tested. Which screen value did it give?
Its screen value is 0.00153 average fractional NGS count over selection days 2 and 3 (reads of this peptide / all reads for the bait, averaged over ….

Which screen value does the source give for chain 1 H12M here?
The screen value was 0.0016 average fractional NGS count over selection days 2 and 3 (reads of this peptide / all reads for the bait, averaged over ….

chain 1 H12R was tested. Which screen value did it give?
Its screen value is 0.000172 average fractional NGS count over selection days 2 and 3 (reads of this peptide / all reads for the bait, averaged over ….

Which screen value does the source give for chain 1 H12L here?
Its screen value is 0.00133 average fractional NGS count over selection days 2 and 3 (reads of this peptide / all reads for the bait, averaged over ….

chain 1 H12E was tested. Which screen value did it give?
The screen value was 0.00161 average fractional NGS count over selection days 2 and 3 (reads of this peptide / all reads for the bait, averaged over ….

With chain 1 W6R as the variant, how does the screen value read?
The screen value was 0.000143 average fractional NGS count over selection days 2 and 3 (reads of this peptide / all reads for the bait, averaged over ….

For chain 1 V7M, which screen value is on record?
Its screen value is 0.0016 average fractional NGS count over selection days 2 and 3 (reads of this peptide / all reads for the bait, averaged over ….

With chain 1 V7K as the variant, how does the screen value read?
The screen value was 0.00287 average fractional NGS count over selection days 2 and 3 (reads of this peptide / all reads for the bait, averaged over ….

With chain 1 V7N as the variant, how does the screen value read?
Its screen value is 0.0129 average fractional NGS count over selection days 2 and 3 (reads of this peptide / all reads for the bait, averaged over ….
